{"source": "patent US20170298146A1", "about": "(MODIQUEST B V, published 2017)", "binders": {"B1": {"name": "RhmAb2.102 (antibody, human IgG1, lambda)", "heavy": "not shown", "light": "QSVLTQPPSMSAAPGQKVTISCSGSSSNIGNNYVSWYQQVPGTAPKLLIYDDNKRPSGIPGRFSGSKSATSATLGITGLQAGDEADYYCGSWDDNLSVVLFGGGTKLTVLGQPKAAPSVTLFPPSSEELQANKATLVCLISDFYPGAVTVAWKADSSPVKAGVETTTPSKQSNNKYAASSYLSLTPEQWKSHRSYSCQVTHEGSTVEKTVAPTECS", "notes": "Human IgG1 lambda; also called Rhm2.102"}}, "key": {"[1]": {"molecular_target": "T1, Histone 2A citrulline-containing peptide 5 (human, also: biotin label)", "T1 peptide": "VGRVH[Cit]LLRKGN", "assay": "peptide ELISA, 0.0023 ug/well", "experimental": "(§1) Biotin and citrulline-containing peptides derived from histone 2A were immobilized on NEUTRAVIDIN®-coated 96-well ELISA plates (0.3 μg/well). CFC-1 and CFC-0 were coated at the same concentration and served as positive and negative controls respectively for specific anti-citrulline reactivity and as coating controls. Non-coated wells were used to test for aspecific binding of the antibodies. […] Detection of bound anti-citrulline antibodies was performed by incubating the wells with rabbit-anti-human-HRP (1:2000) for one hour at RT followed by incubation with TMB substrate. The resulting OD (y-axis) is a measure for antibody binding.\n(§2) Ninety-six-well ELISA plates were coated with NEUTRAVIDIN® (0.1 μg/well) by overnight incubation at 4° C. Wells were washed five times with PBS-TWEEN®-20 (PBS-T) and blocked by a one-hour incubation with PBS-T+1% Bovine serum albumin (BSA) at room temperature (RT). After five more washes with PBS-T, wells were incubated for one hour at RT with histone-derived citrulline and biotin-containing peptides (0.3 μg/well). […] Wells were washed five times with PBS-T and incubated with rabbit-anti-human-HRP (1:2000) for one hour at RT followed by five washes with PBS-T and three wash steps with PBS. Wells were incubated for five minutes with TMB substrate before stopping the reaction with 2 M H₂SO₄. Optical density was measured by 450 nm and is a measure for the affinity of the antibodies used."}, "[2]": {"molecular_target": "T2, Histone 2A citrulline-containing peptide 4 (human, also: biotin label)", "T2 peptide": "QFPVG[Cit]VHRLLR", "assay": "peptide ELISA, 0.0023 ug/well", "experimental": "as §1, §2"}, "[3]": {"molecular_target": "T3, Histone 2A citrulline-containing peptide 11 (human, also: biotin label)", "T3 peptide": "LQLAI[Cit]NDEELN", "assay": "peptide ELISA, 0.0023 ug/well", "experimental": "as §1, §2"}, "[4]": {"molecular_target": "T4, Histone 2A citrulline-containing peptide 12 (human, also: biotin label)", "T4 peptide": "NKLLG[Cit]VTIAQG", "assay": "peptide ELISA, 0.0023 ug/well", "experimental": "as §1, §2"}, "[5]": {"molecular_target": "T5, Histone 2A citrulline-containing peptide 8 (human, also: biotin label)", "T5 peptide": "AGNAA[Cit]DNKKTR", "assay": "peptide ELISA, 0.0023 ug/well", "experimental": "as §1, §2"}, "[6]": {"molecular_target": "T6, Histone 2A citrulline-containing peptide 1 (human, also: biotin label)", "T6 construct": "also called AAASGXGKQGGK", "T6 peptide": "AAASG[Cit]GKQGGK", "assay": "peptide ELISA, 0.0023 ug/well", "experimental": "as §1, §2"}, "[7]": {"molecular_target": "T7, Histone 2A citrulline-containing peptide 10 (human, also: biotin label)", "T7 peptide": "TRIIP[Cit]HLQLAI", "assay": "peptide ELISA, 0.0023 ug/well", "experimental": "as §1, §2"}, "CFC-1 [8]": {"molecular_target": "T8, CFC-1", "T8 construct": "Positive control for anti-citrulline reactivity; also called cfc1 XG", "assay": "peptide ELISA, 0.0023 ug/well", "experimental": "as §1, §2"}, "[9]": {"molecular_target": "T9, Histone 2A citrulline-containing peptide 7 (human, also: biotin label)", "T9 peptide": "GNYSE[Cit]VGAGAP", "assay": "peptide ELISA, 0.0023 ug/well", "experimental": "as §1, §2"}, "[10]": {"molecular_target": "T10, huPAD2 deiminated human recombinant histone H2B (human)", "T10 construct": "also called H2B/p2", "assay": "ELISA, 0.4 ug/well", "experimental": "(§3) CFC-1 and CFC-0 were coated at the same concentration and served as positive and negative controls, respectively, for specific anti-citrulline reactivity and as coating controls. Non-coated wells were used to test for aspecific binding of the antibodies. […] Detection of bound anti-citrulline antibodies was performed by incubating the wells with rabbit-anti-human-HRP (1:2000) for one hour at RT followed by incubation with TMB substrate. The resulting OD (y-axis) is a measure for antibody binding. H1=recombinant histone 1; H1/p2=huPAD2 recombinant histone 1; H1/p4=huPAD4 recombinant histone 1 and so forth (x-axis)."}, "[11]": {"molecular_target": "T11, huPAD4 deiminated human recombinant histone H2B (human)", "T11 construct": "also called H2B/p4", "assay": "ELISA, 0.4 ug/well", "experimental": "as §3"}, "[12]": {"molecular_target": "T12, huPAD4 deiminated human recombinant histone H2A (human)", "T12 construct": "also called H2A/p4; huPAD4 deiminated histone 2A", "assay": "ELISA, 0.4 ug/well", "experimental": "as §3"}, "[13]": {"molecular_target": "T13, human recombinant histone H2A (human)", "T13 construct": "Non-deiminated", "assay": "ELISA, 0.4 ug/well", "experimental": "as §3"}, "[14]": {"molecular_target": "T14, huPAD2 deiminated human recombinant histone H3 (human)", "T14 construct": "also called H3/p2", "assay": "ELISA, 0.4 ug/well", "experimental": "as §3"}, "[15]": {"molecular_target": "T15, huPAD2 deiminated human recombinant histone H2A (human)", "T15 construct": "also called H2A/p2", "assay": "ELISA, 0.4 ug/well", "experimental": "as §3"}, "[16]": {"molecular_target": "human recombinant histone H4 (human, UniProt P62805 2-103)", "assay": "ELISA, 0.4 ug/well", "experimental": "as §3"}, "[17]": {"molecular_target": "T16, huPAD4 deiminated human recombinant histone H3 (human)", "T16 construct": "also called H3/p4", "assay": "ELISA, 0.4 ug/well", "experimental": "as §3"}, "CFC-1 [18]": {"molecular_target": "T8, CFC-1", "assay": "ELISA, 0.4 ug/well", "experimental": "as §3"}, "msFibα XH [19]": {"molecular_target": "T17, msFibα XH (mouse, X at position 15 is citrulline; biotin label)", "T17 peptide": "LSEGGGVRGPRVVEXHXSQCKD", "assay": "peptide ELISA, 0.016 ug/well", "experimental": "as §1, with “fibrinogen and vimentin” for “histone 2A”\n(§4) Biotin-labeled and citrulline-containing fibrinogen and vimentin peptides (Table 5) were also tested for reactivity with the therapeutic antibodies. Peptides were coated on 96-well NEUTRAVIDIN®-ELISA plates."}, "huFibα XH": {"molecular_target": "T18, huFibα XH (human, X at position 15 is citrulline; biotin label)", "T18 peptide": "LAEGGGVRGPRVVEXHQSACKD", "assay": "peptide ELISA, 0.016 ug/well", "experimental": "as §1, with “fibrinogen and vimentin” for “histone 2A”\nas §4"}, "CFC-1 [20]": {"molecular_target": "T8, CFC-1", "assay": "peptide ELISA, 0.016 ug/well", "experimental": "as §1, with “fibrinogen and vimentin” for “histone 2A”\nas §4"}, "msFibβ XG [21]": {"molecular_target": "T19, msFibβ XG (mouse, also: biotin label)", "T19 peptide": "EPTDSLDA[Cit]GHRPVDRR", "assay": "peptide ELISA, 0.016 ug/well", "experimental": "as §1, with “fibrinogen and vimentin” for “histone 2A”\nas §4"}, "msFibα XH [22]": {"molecular_target": "T17, msFibα XH", "assay": "peptide ELISA, 0.000128 ug/well", "experimental": "as §1, with “fibrinogen and vimentin” for “histone 2A”\nas §4"}, "msFibβ XG [23]": {"molecular_target": "T19, msFibβ XG", "assay": "peptide ELISA, 0.000128 ug/well", "experimental": "as §1, with “fibrinogen and vimentin” for “histone 2A”\nas §4"}}, "note": "Non-standard residues stand in square brackets, D forms with d. No end group written: not given here. Cit = NC(=O)NCCC[C@H](N)C(=O)O", "data": [{"binder": "B1", "values": [{"measurement": "OD", "setting": "[1]", "value": 0.063, "unit": "OD"}, {"measurement": "OD", "setting": "[2]", "value": 0.078, "unit": "OD"}, {"measurement": "OD", "setting": "[3]", "value": 0.057, "unit": "OD"}, {"measurement": "OD", "setting": "[4]", "value": 0.059, "unit": "OD"}, {"measurement": "OD", "setting": "[5]", "value": 0.06, "unit": "OD"}, {"measurement": "OD", "setting": "[6]", "value": 0.3, "unit": "OD"}, {"measurement": "OD", "setting": "[7]", "value": 0.068, "unit": "OD"}, {"measurement": "OD", "setting": "CFC-1 [8]", "value": 0.916, "unit": "OD"}, {"measurement": "OD", "setting": "[9]", "value": 0.064, "unit": "OD"}, {"measurement": "OD", "setting": "[10]", "value": 0.06, "unit": "OD"}, {"measurement": "OD", "setting": "[11]", "value": 0.054, "unit": "OD"}, {"measurement": "OD", "setting": "[12]", "value": 2.72, "unit": "OD"}, {"measurement": "OD", "setting": "[13]", "value": 0.071, "unit": "OD"}, {"measurement": "OD", "setting": "[14]", "value": 1.18, "unit": "OD"}, {"measurement": "OD", "setting": "[15]", "value": 3.08, "unit": "OD"}, {"measurement": "OD", "setting": "[16]", "value": 0.091, "unit": "OD"}, {"measurement": "OD", "setting": "[17]", "value": 0.166, "unit": "OD"}, {"measurement": "OD", "setting": "CFC-1 [18]", "value": 3.12, "unit": "OD"}, {"measurement": "OD", "setting": "msFibα XH [19]", "value": 0.081, "unit": "OD"}, {"measurement": "OD", "setting": "huFibα XH", "value": 0.08, "unit": "OD"}, {"measurement": "OD", "setting": "CFC-1 [20]", "value": 1.22, "unit": "OD"}, {"measurement": "OD", "setting": "msFibβ XG [21]", "value": 0.174, "unit": "OD"}, {"measurement": "OD", "setting": "msFibα XH [22]", "value": 0.089, "unit": "OD"}, {"measurement": "OD", "setting": "msFibβ XG [23]", "value": 0.118, "unit": "OD"}]}]}
